Results: article PMC10315065 (Journal of Innate Immunity, 2023)

Key:
GAPDH, J774 = test: GAPDH activity in cell lysate; assay type: cell-based, mouse
P2X7, THP-1 = assay type: cell-based; settings: IFNγ; empty vector vs GAPDH knockdown; n = 3
cell surface GAPDH, J774 = assay type: cell-based, mouse; settings: IFNγ 100 ng/mL, 24 h; n = 3
[1] = tested on: cell surface GAPDH, THP-1; assay type: cell-based; settings: IFNγ; empty vector vs GAPDH knockdown; n = 3

B1: IFNγ: recombinant mouse IFNγ (PeproTech #315-05) (protein, UniProt P01580 23-155, looked up)
Interferon gamma: HGTVIESLESLNNYFNSSGIDVEEKSLFLDIWRNWQKDGDMKILQSQIISFYLRLFEVLKDNQAISNNISVIESHLITTFFSNSKAKKDAFMSIAKFEVNNPQVQRQAFNELIRVVHQLLPESSLRKRKRSRC
For B1, the GAPDH activity (GAPDH, J774; IFNγ 100 ng/mL, 24 h) was “enhanced GAPDH activity”, the “total cellular GAPDH” value (GAPDH, J774; IFNγ treatment, Fig. 1i) was “significant increase in total cellular GAPDH” and the “surface P2X7 expression” value (P2X7, THP-1) was “surface expression of P2X7 continued to be elevated irrespective of GAPDH K/D”. The “increase in cell surface GAPDH localization” value (cell surface GAPDH, J774) was roughly 50% and the “GAPDH recruitment on the cell surface, WT and GAPDH K/D” value [1] was “enhanced GAPDH recruitment on the cell surface of WT cells but failed to do so in GAPDH K/D cells”.
